Here are results for one molecule from paper PMC5538295.

The data set deals with FMRP (rat, UniProt Q80WE1 1-593). Description: EMSA; 150 mM KCl, tRNA; three shifted bands; Filter binding: 10 mM Tris pH 7.5, 50 mM KCl, 1 mM DTT, room temperature; REMSA: 20 mM HEPES pH 7.6, 150 mM KCl, 0.5 mM DTT, 5% glycerol, 50 ng/ul tRNA, room te. In general terms: Mobility shift assays separate free from complexed probe on a gel.

B1: human MMP-9 wild-type probe (ssRNA)
RNA: GUUCUGGAGGAAAGGGAGGAGUGGAGGUGGGCUGGGCCCUCUCUUCUCACCUUUGUUUUUUGUUGGAGUGUUUCUAAU
As for B1, the binding result is given as “binds”.
